Laboratory results reported in US7799901B2, “Modulators of the function of FAS receptors and other proteins” (Yeda Research and Development Co. Ltd., priority 1995, dated 2010).

Experiments:
[1] = target: T1, MACHα1 (Homo sapiens, UniProt Q14790); experiment: Two-hybrid β-galactosidase filter assay (FIG. 5), binding to MACHα1; details: two hybrid test
T1 construct: expressed in transfected cells; host or cells: SFY526 yeast
Protocol: In FIG. 5, there is shown the results of the interaction of MORT-1 and MACH within transfected yeast cells. Briefly, MORT-1 and MACHβ1 and their deletion constructs, as well as MACHα1, a MACHα1 mutant in which the catalytic cysteine Cys360 is replaced by Ser (MACHα1 (C360S)) and the intracellular domain of human FAS-R (Fas-IC), were expressed within transfected SFY526 yeast in Gal4 DNA binding domain and activation domain constructs (pGBT9 and pGAD-GH). Their interaction was assessed by a β-galactosidase expression filter assay as described in Boldin et al (1995b). The results are presented in terms of the time required for the development of strong color. […] None of the inserts examined interacted with a number of tested negative controls, including the intracellular domains of human p55 TNF receptor, p75 TNF receptor and CD40, and lamin, cyclin D and ‘empty’ Gal4 vectors. MACHβ1 was cloned by two hybrid screening of a Gal4 AD-tagged human B cell library (Durfee et al, 1993) for proteins that bind to MORT-1, using the HF7c Yeast reporter strain. Except where otherwise indicated, all experimental procedures for the findings presented are as described above (see also Boldin et al, 1995). […] MACHβ1 also self-associated in the transfected yeast. […] Expression of MACHβ1 molecules in mammalian cells yielded a 34 kDa protein that bound to MORT-1 molecules co-expressed with it. […]

[2] = target: T2, GST-Fas-IC fusion protein with a replacement at the lpr^eg mutation site (I225A) (Mus musculus, UniProt P25446, I246A); experiment: In vitro binding to GST-Fas-IC with I225A replacement; details: [35S]-labeled protein from HeLa extracts; SDS-PAGE, autoradiography
T2 construct: GST fusion with Fas-IC containing a Ile to Ala replacement mutation at position 225; made in house; host or cells: E. coli
T2 sequence (P25446 187-327 I246A): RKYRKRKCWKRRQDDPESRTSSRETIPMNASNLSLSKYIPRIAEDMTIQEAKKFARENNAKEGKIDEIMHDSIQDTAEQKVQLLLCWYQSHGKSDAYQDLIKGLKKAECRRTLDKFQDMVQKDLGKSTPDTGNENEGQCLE
Protocol: Glutathione S-transferase (GST) fusions with the wild type or a mutated Fas-IC were produced and adsorbed to glutathione-agarose beads; see Boldin et al, 1995; Ausubel et al, 1994; Frangioni and Neel, 1993). Binding of metabolically-labeled FLAG-MORT-1 fusion protein to GST-Fas-IC was assessed by incubating the beads for 2 h at 4° C. with extracts of HeLa cells, metabolically labeled with [^35S]methionine (60 μCi/ml), that express FLAG-MORT-1. The extracts were prepared in a buffer containing 50 mM Tris-HCl, pH 7.5, 150 mM NaCl, 0.1% NP-40; 1 mM dithioteitol, 1 mM EDTA, 1 mM phenylmethylsulfonyl fluoride, 20 μg/ml Aprotonin, […] Leupeptin, 10 mM-sodium fluoride and 0.1 mM sodium vanadate (1 ml per 5×10^5 cells).
Expression of MORT-1 molecules fused at their N terminus with the. FLAG octapeptide (FLAG-MORT-1) yielded in HeLa cells proteins of four distinct sizes—about […], 28, 32, and 34 kD. […] Thus, the in vitro interaction was evaluated by assessing, by autoradiography following SDS-PAGE, the binding of [35] metabolically labeled MORT-1, produced in transfected HeLa cells as a fusion with the FLAG octapeptide (FLAG-MORT-1), to GST, GST fusion with the human or mouse Fas-IC (GST-huFas-IC, GST-mFas-IC) or to GST fusion with Fas-IC containing a Ile to Ala replacement mutation at position 225.

T1 sequence (Q14790 217-479): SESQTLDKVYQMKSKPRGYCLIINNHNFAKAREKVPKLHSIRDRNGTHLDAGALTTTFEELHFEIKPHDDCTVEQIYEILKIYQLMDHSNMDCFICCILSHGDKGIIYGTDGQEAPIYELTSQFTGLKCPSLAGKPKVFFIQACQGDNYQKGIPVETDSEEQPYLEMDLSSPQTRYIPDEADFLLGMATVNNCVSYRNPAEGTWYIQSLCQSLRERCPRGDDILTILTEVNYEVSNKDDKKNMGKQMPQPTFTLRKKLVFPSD

For “MACHα1: MACH isoform, cDNA SEQ ID NO: 14, amino acid SEQ ID NO: 7; contains CED3/ICE homology region”, the “binding to MACHα1 in transfected yeast (self-interaction)” value [1] was “did not exhibit self-interaction”.

B1: MORT-1: Mediator of Receptor-induced Toxicity; protein binding the intracellular domain of FAS-R, SEQ ID NO:2 (protein)
chain: VNQAPECRFGGGILGPLGKRRDLARASEPRTEGARRAGPQPRPLADPAMDPFLVLLHSVSSSLSSSELTELKFLCLGRVVKRKLERVQSGLDLFSMLLEQNDLEPGHTELLRELLASLRRHDLLRRVDDFEAGAAAGAAPGEEDLCAAFNVICDNVGKDWRRLARQLKVSDTKIDSIEDRYPRNLTERVRESLRIWKNTEKENATVAHLVGALRSCQMNLVADLVQEVQQARDLQNRSGAMSPMSWNSDASTSEAS
For B1, the “in vitro binding to GST-Fas-IC (I225A)” value [2] was “did not bind”.
